Data on 125 sequences can be found in the supplement of paper PMC9112550, “Optimization of the antimicrobial peptide Bac7 by deep mutational scanning” (BMC Biology, 2022).
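Also: peptides expressed intracellularly from a pBAD plasmid library in pooled LB shake-flask culture, induced with 0.3% L-arabinose, DNA abundance read by NGS, three biological replicates, DESeq2 with apeglm shrinkage.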

The series has as its system Escherichia coli TOP10. Put plainly: shrunken log2 fold change of peptide-encoding DNA abundance (4.5 h post-induction vs induction); higher = less antimicrobial activity (less host growth inhibition). As to conditions: time post-induction: 4.5 h; library: site-saturation at positions 5, 18, 19, 20.
On to RRIRYRPPRLPRPRPRPHPKPRP, for which the “shrunken log2 fold change” value is -0.0588. For the sequence RRIRQRPPRLPRPRPRPCWYPRP, the “shrunken log2 fold change” value is -0.261.

Consider RRIRWRPPRLPRPRPRPHIYPRP, for which the “shrunken log2 fold change” value is -0.358.

With RRIRDRPPRLPRPRPRPGSKPRP, the “shrunken log2 fold change” value is -0.126. As to RRIRQRPPRLPRPRPRPNEVPRP, the “shrunken log2 fold change” value is -0.00511. Turning to RRIRGRPPRLPRPRPRPQSFPRP, the “shrunken log2 fold change” value was determined as 0.218. Consider RRIRWRPPRLPRPRPRPTVKPRP, for which the “shrunken log2 fold change” value was -0.0974. Under RRIRPRPPRLPRPRPRPRSSPRP stands 0.151; under RRIRWRPPRLPRPRPRPLQIPRP, -0.125; under RRIRKRPPRLPRPRPRPPDCPRP, 1.03. In the case of RRIRIRPPRLPRPRPRPPEEPRP it was 0.0652; in that of RRIRARPPRLPRPRPRPRKHPRP, 0.146. With RRIRPRPPRLPRPRPRPPAKPRP, the “shrunken log2 fold change” value was determined as 0.657. As for RRIRMRPPRLPRPRPRPQYYPRP, the “shrunken log2 fold change” value is -0.805.

Consider RRIRGRPPRLPRPRPRPSVFPRP, for which the “shrunken log2 fold change” value stood at 0.465. On to RRIRSRPPRLPRPRPRPNMHPRP, for which the “shrunken log2 fold change” value is -0.257. In the case of RRIRYRPPRLPRPRPRPVCAPRP, the “shrunken log2 fold change” value was -0.232. For the sequence RRIRGRPPRLPRPRPRPGPCPRP, the “shrunken log2 fold change” value stood at 0.854. Turning to RRIRCRPPRLPRPRPRPLRCPRP, the “shrunken log2 fold change” value is 0.198. In the case of RRIRRRPPRLPRPRPRPPAVPRP, the “shrunken log2 fold change” value is 0.606. As to RRIRHRPPRLPRPRPRPDWYPRP, the “shrunken log2 fold change” value was -0.061. With RRIRRRPPRLPRPRPRPAYTPRP, the “shrunken log2 fold change” value was -0.0735.

On to RRIRERPPRLPRPRPRPLMWPRP, for which the “shrunken log2 fold change” value is -0.101. With RRIRHRPPRLPRPRPRPGIIPRP, the “shrunken log2 fold change” value is -0.0698.

On to RRIRTRPPRLPRPRPRPAFGPRP, for which the “shrunken log2 fold change” value stood at 0.155.

Regarding RRIRKRPPRLPRPRPRPMDGPRP, the “shrunken log2 fold change” value came out at 0.231.

For RRIRNRPPRLPRPRPRPRTHPRP, the “shrunken log2 fold change” value was -0.184.

As to RRIRLRPPRLPRPRPRPCQEPRP, the “shrunken log2 fold change” value was -0.0108. With RRIRDRPPRLPRPRPRPDWIPRP, the “shrunken log2 fold change” value came out at 0.189. As to RRIRRRPPRLPRPRPRPECHPRP, the “shrunken log2 fold change” value worked out at 0.171. Under RRIRFRPPRLPRPRPRPRRDPRP stands 0.798. For RRIRGRPPRLPRPRPRPEWHPRP, the “shrunken log2 fold change” value turned out to be 0.386. In the case of RRIRARPPRLPRPRPRPQPFPRP, the “shrunken log2 fold change” value is -0.0268. On to RRIRLRPPRLPRPRPRPQFHPRP, for which the “shrunken log2 fold change” value was -0.414. As for RRIRHRPPRLPRPRPRPSLDPRP, the “shrunken log2 fold change” value was -0.22.

In the case of RRIRWRPPRLPRPRPRPQGTPRP, the “shrunken log2 fold change” value amounted to 0.104. Consider RRIRCRPPRLPRPRPRPTFWPRP, for which the “shrunken log2 fold change” value amounted to 0.174. With RRIRDRPPRLPRPRPRPIQWPRP, the “shrunken log2 fold change” value was -0.153. In the case of RRIRCRPPRLPRPRPRPSYRPRP it was -0.242; in that of RRIRNRPPRLPRPRPRPNTFPRP, -0.332; in that of RRIRGRPPRLPRPRPRPFMMPRP, -0.467. As to RRIRWRPPRLPRPRPRPYPHPRP, the “shrunken log2 fold change” value was -0.184. Regarding RRIRFRPPRLPRPRPRPLSKPRP, the “shrunken log2 fold change” value came to 0.72. For RRIRFRPPRLPRPRPRPYFPPRP, the “shrunken log2 fold change” value was -0.599. In the case of RRIRMRPPRLPRPRPRPIDIPRP it was 0.476. On to RRIRERPPRLPRPRPRPGDPPRP, for which the “shrunken log2 fold change” value is 0.103. In the case of RRIRTRPPRLPRPRPRPVMDPRP it was -0.478. Turning to RRIRDRPPRLPRPRPRPLGVPRP, the “shrunken log2 fold change” value is 0.577. For RRIRTRPPRLPRPRPRPFMYPRP, the “shrunken log2 fold change” value was -0.576. Take RRIRHRPPRLPRPRPRPGYAPRP: the “shrunken log2 fold change” value is -0.163. As to RRIRTRPPRLPRPRPRPETRPRP, the “shrunken log2 fold change” value was -0.0794. As to RRIRNRPPRLPRPRPRPDKLPRP, the “shrunken log2 fold change” value is -0.168. In the case of RRIRNRPPRLPRPRPRPVDKPRP it was 0.0215.

With RRIRCRPPRLPRPRPRPDNNPRP, the “shrunken log2 fold change” value was -0.661. Under RRIRCRPPRLPRPRPRPGGTPRP stands -0.0298; under RRIRFRPPRLPRPRPRPKHHPRP, -0.282; under RRIRMRPPRLPRPRPRPQYAPRP, 0.0122. Regarding RRIRERPPRLPRPRPRPARPPRP, the “shrunken log2 fold change” value was determined as 0.626. On to RRIRERPPRLPRPRPRPPNFPRP, for which the “shrunken log2 fold change” value was -0.329. RRIRFRPPRLPRPRPRPECHPRP: the “shrunken log2 fold change” value worked out at 0.0585. For RRIRQRPPRLPRPRPRPMEIPRP, the “shrunken log2 fold change” value was -0.0109. For RRIRKRPPRLPRPRPRPQDEPRP, the “shrunken log2 fold change” value is -0.0149. Consider RRIRDRPPRLPRPRPRPDCSPRP, for which the “shrunken log2 fold change” value turned out to be 0.573.

Regarding RRIRARPPRLPRPRPRPQEGPRP, the “shrunken log2 fold change” value was -0.0912. For RRIRARPPRLPRPRPRPQVQPRP, the “shrunken log2 fold change” value was found to be 0.0275. For the sequence RRIRCRPPRLPRPRPRPQYCPRP, the “shrunken log2 fold change” value is -0.135. Consider RRIRCRPPRLPRPRPRPWISPRP, for which the “shrunken log2 fold change” value was -0.085.

RRIRSRPPRLPRPRPRPCADPRP: the “shrunken log2 fold change” value amounted to 0.0939. Under RRIRDRPPRLPRPRPRPRFVPRP stands 0.0484; under RRIRNRPPRLPRPRPRPQVQPRP, -0.524. As for RRIRHRPPRLPRPRPRPCPDPRP, the “shrunken log2 fold change” value is 0.0299. Take RRIRCRPPRLPRPRPRPYDIPRP: the “shrunken log2 fold change” value amounted to 0.0852. Take RRIRIRPPRLPRPRPRPQYYPRP: the “shrunken log2 fold change” value is -1.28. In the case of RRIRYRPPRLPRPRPRPGATPRP it was 0.128; in that of RRIRKRPPRLPRPRPRPIPPPRP, 0.385; in that of RRIRARPPRLPRPRPRPGMKPRP, 0.186. Take RRIRGRPPRLPRPRPRPWWGPRP: the “shrunken log2 fold change” value was -0.0457.

On to RRIRWRPPRLPRPRPRPEAKPRP, for which the “shrunken log2 fold change” value worked out at 0.0319. For RRIRKRPPRLPRPRPRPWNMPRP, the “shrunken log2 fold change” value was -0.181. Regarding RRIRNRPPRLPRPRPRPHCLPRP, the “shrunken log2 fold change” value is -0.466. As to RRIRWRPPRLPRPRPRPNYDPRP, the “shrunken log2 fold change” value is -0.24.

Take RRIRHRPPRLPRPRPRPPQHPRP: the “shrunken log2 fold change” value is -0.177. Regarding RRIRSRPPRLPRPRPRPPLSPRP, the “shrunken log2 fold change” value came out at 0.125. In the case of RRIRRRPPRLPRPRPRPKMRPRP it was 0.733; in that of RRIRMRPPRLPRPRPRPLHAPRP, 1.29. For the sequence RRIRKRPPRLPRPRPRPRFTPRP, the “shrunken log2 fold change” value worked out at 0.158. In the case of RRIRERPPRLPRPRPRPKDPPRP, the “shrunken log2 fold change” value is 0.0145. For RRIRWRPPRLPRPRPRPEIPPRP, the “shrunken log2 fold change” value was -0.142. Turning to RRIRVRPPRLPRPRPRPHSQPRP, the “shrunken log2 fold change” value was 0.288. As to RRIRSRPPRLPRPRPRPFKGPRP, the “shrunken log2 fold change” value turned out to be 0.112. For RRIRQRPPRLPRPRPRPNWSPRP, the “shrunken log2 fold change” value was found to be 0.148.

In the case of RRIRQRPPRLPRPRPRPICVPRP, the “shrunken log2 fold change” value was -0.307. In the case of RRIRVRPPRLPRPRPRPTMYPRP it was -0.245. Regarding RRIRQRPPRLPRPRPRPDKHPRP, the “shrunken log2 fold change” value is -0.205. Take RRIRRRPPRLPRPRPRPMAGPRP: the “shrunken log2 fold change” value is 0.111. In the case of RRIRRRPPRLPRPRPRPDTQPRP, the “shrunken log2 fold change” value stood at 0.162. Turning to RRIRERPPRLPRPRPRPPIIPRP, the “shrunken log2 fold change” value is -0.562. Turning to RRIRSRPPRLPRPRPRPSTMPRP, the “shrunken log2 fold change” value was -0.455. As to RRIRPRPPRLPRPRPRPCDRPRP, the “shrunken log2 fold change” value turned out to be 0.0787. In the case of RRIRTRPPRLPRPRPRPWGVPRP, the “shrunken log2 fold change” value was -0.0284. As for RRIRVRPPRLPRPRPRPLTIPRP, the “shrunken log2 fold change” value is -0.329. Under RRIRLRPPRLPRPRPRPPRHPRP stands 0.377; under RRIRGRPPRLPRPRPRPNMAPRP, 0.875; under RRIRTRPPRLPRPRPRPLTRPRP, 0.252. With RRIRRRPPRLPRPRPRPQDGPRP, the “shrunken log2 fold change” value turned out to be 0.106. Under RRIRGRPPRLPRPRPRPWLFPRP stands 0.458; under RRIRKRPPRLPRPRPRPETGPRP, 0.226. For the sequence RRIRIRPPRLPRPRPRPSREPRP, the “shrunken log2 fold change” value is -0.0977.

As to RRIRPRPPRLPRPRPRPNVNPRP, the “shrunken log2 fold change” value is -0.46.

As to RRIRYRPPRLPRPRPRPATVPRP, the “shrunken log2 fold change” value is -0.042. As for RRIRSRPPRLPRPRPRPIEVPRP, the “shrunken log2 fold change” value was found to be 0.0392. In the case of RRIRVRPPRLPRPRPRPRSAPRP it was 0.258. For the sequence RRIRFRPPRLPRPRPRPHDYPRP, the “shrunken log2 fold change” value was -0.323.

Consider RRIRVRPPRLPRPRPRPNKNPRP, for which the “shrunken log2 fold change” value stood at 0.0192. RRIRCRPPRLPRPRPRPRCSPRP: the “shrunken log2 fold change” value was -0.0164. On to RRIRWRPPRLPRPRPRPSYGPRP, for which the “shrunken log2 fold change” value was -0.503.

Take RRIRRRPPRLPRPRPRPWDCPRP: the “shrunken log2 fold change” value is -0.033. With RRIRCRPPRLPRPRPRPDIEPRP, the “shrunken log2 fold change” value is -0.0833. RRIRCRPPRLPRPRPRPEREPRP: the “shrunken log2 fold change” value was 0.108. In the case of RRIRVRPPRLPRPRPRPRTRPRP, the “shrunken log2 fold change” value came to 0.339. Under RRIRSRPPRLPRPRPRPGCMPRP stands 0.0917. With RRIRFRPPRLPRPRPRPQNSPRP, the “shrunken log2 fold change” value was -0.568.

For the sequence RRIRGRPPRLPRPRPRPVREPRP, the “shrunken log2 fold change” value was 1.11. RRIRMRPPRLPRPRPRPDFMPRP: the “shrunken log2 fold change” value was -0.0119. Under RRIRSRPPRLPRPRPRPHGHPRP stands -0.167.
